# B1: Drosophila melanogaster PRL (wild-type) [D. melanogaster] / Drosophila melanogaster CNNM CBS-pair domain, GST-tagged [D. melanogaster] (parent)
# chain 1: MSITMRQKDLRPAPALIEYKGMKFLITDRPSDITINHYIMELKKNNVNTVVRVCEPSYNTDELETQGITVKDLAFEDGTFPPQQVVDEWFEVLKDKYQQNPEACVAVHCVAGLGRAPVLVALALIELGLKYEAAVEMIRDKRRGAINAKQLSFLEKYKPKARLKHKNGHKNSCSVQ
# chain 2: VNIISGALELRKKTVADVMTHINDAFMLSLDALLDFETVSEIMNSGYSRIPVYDGDRKNIVTLLYIKDLAFVDTDDNTPLKTLCEFYQNPVHFVFEDYTLDIMFNQFKEGTIGHIAFVHRVNNEGDGDPFYETVGLVTLEDVIEELIQAEIVDE
# Variants of: B1
# Assay: ITC
# Details: with Drosophila melanogaster CNNM CBS-pair domain, 16 µM CNNM titrated with 160 µM PRL
row,Kd [µM],Variant
1,7.5,chain 1 R143E
2,0.6,chain 1 C109D
